Measurements published in publication PMC12796238.
Like-named read-outs stand apart in the source and are kept apart here.

Legend:
[1] = biological target: Undamaged nucleosome core particle (Cy3-labeled human histone octamer on 191 bp Widom 601 DNA) (human) (UniProt P62807); assay: single-molecule fluorescence with optical tweezers
[2] = biological target: Undamaged nucleosome core particle (Cy3-labeled human histone octamer on 191 bp Widom 601 DNA) (human) (UniProt P62807); assay: single-molecule fluorescence with optical tweezers; remark: listed apart in the source

Sequence of YFP-PARP1 (poly(ADP-ribose) polymerase 1, wild type) (P09874 whole entry): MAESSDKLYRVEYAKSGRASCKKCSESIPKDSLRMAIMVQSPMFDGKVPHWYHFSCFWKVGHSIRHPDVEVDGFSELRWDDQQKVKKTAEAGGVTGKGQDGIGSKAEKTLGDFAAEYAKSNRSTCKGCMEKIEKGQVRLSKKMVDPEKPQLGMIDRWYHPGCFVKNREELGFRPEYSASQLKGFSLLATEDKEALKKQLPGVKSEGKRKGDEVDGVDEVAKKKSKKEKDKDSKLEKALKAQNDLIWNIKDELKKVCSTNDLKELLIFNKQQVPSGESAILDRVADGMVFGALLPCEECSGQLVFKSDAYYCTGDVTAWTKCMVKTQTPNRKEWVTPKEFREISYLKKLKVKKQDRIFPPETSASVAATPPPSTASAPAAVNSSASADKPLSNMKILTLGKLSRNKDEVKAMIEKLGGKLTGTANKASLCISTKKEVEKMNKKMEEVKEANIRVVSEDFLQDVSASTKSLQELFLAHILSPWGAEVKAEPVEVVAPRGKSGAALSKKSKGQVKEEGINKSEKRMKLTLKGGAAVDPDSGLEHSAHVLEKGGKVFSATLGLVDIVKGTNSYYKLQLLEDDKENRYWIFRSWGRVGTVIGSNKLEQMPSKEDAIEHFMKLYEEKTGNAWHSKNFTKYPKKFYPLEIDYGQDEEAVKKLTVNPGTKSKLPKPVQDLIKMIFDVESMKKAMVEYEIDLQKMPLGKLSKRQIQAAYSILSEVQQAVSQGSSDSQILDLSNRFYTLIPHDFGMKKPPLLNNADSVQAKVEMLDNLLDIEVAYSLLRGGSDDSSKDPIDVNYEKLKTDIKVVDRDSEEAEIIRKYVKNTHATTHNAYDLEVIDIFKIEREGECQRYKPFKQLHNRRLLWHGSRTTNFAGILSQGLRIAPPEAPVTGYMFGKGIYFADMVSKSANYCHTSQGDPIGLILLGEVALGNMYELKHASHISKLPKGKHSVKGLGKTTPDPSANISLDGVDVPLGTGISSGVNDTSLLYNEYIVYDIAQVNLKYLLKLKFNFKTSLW

HaloTag-PARP1 H862A/Y896A/E988A (catalytically dead PARP1) (from UniProt P09874 1-1014) (enzyme)
lifetime [1]: 56 s

YFP-PARP1 (poly(ADP-ribose) polymerase 1, wild type) (from UniProt P09874 1-1014) (enzyme)
Kd [1]: 10.2 nM
lifetime [1]: 2.5 s
Kd [2]: 1 nM
